Experimental findings from PMC3271085, “Enhancement of Chemokine Function as an Immunomodulatory Strategy Employed by Human Herpesviruses” (PLoS Pathogens, 2012) are described below.

The test deals with soluble, secreted form of HSV-2 glycoprotein G (SgG2) (herpes simplex virus type 2) (UniProt P13290). Nature of the test: SPR; Biacore X; SgG1 or SgG2 amine-coupled to CM5 chips (dialysed against acetate buffer pH 5.0 for SgG1, pH 5.5 for SgG2); chemokines injected; screening at 100 nM and kinetic conditions as in ref. 16; Biaevaluation 3.2. A general note: In SPR one partner is held on a chip, and binding of the other changes the refractive index at the surface.
Sequence of soluble, secreted form of HSV-2 glycoprotein G (SgG2) (herpes simplex virus type 2) (P13290 23-699): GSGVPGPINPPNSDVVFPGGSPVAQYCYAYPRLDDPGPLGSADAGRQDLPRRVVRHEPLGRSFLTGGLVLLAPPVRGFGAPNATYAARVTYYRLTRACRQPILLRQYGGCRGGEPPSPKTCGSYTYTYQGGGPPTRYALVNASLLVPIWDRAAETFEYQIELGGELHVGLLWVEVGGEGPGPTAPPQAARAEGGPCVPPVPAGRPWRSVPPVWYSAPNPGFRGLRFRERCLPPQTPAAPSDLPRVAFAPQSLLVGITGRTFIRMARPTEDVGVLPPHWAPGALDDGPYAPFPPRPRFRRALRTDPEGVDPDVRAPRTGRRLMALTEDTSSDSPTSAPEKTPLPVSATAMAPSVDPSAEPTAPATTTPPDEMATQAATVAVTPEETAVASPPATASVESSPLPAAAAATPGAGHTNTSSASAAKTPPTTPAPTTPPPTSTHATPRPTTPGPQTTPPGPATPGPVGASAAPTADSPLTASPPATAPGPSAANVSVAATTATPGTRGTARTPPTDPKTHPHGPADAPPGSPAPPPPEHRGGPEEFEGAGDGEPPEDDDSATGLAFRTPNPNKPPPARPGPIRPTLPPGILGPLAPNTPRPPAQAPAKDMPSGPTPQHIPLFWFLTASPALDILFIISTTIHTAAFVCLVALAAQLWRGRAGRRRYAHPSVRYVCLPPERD

What is called Kd is the concentration at which binding is half-saturated. Read a low Kd as tighter binding. Take “human CXCL12β (from UniProt P48061 22-93) (ligand)”: the Kd amounted to 2.2 nM. Consider “human CXCL10 (from UniProt P02778 22-98) (ligand)”, for which the Kd amounted to 5.5 nM. Consider “human CCL25 (from UniProt O15444 24-150) (ligand)”, for which the Kd came out at 1.6 nM. For “human CCL26 (from UniProt Q9Y258 24-94) (ligand)” the value was 1.72 nM.

B1: human CCL22 (ligand)
chain: GPYGANMEDSVCCRDYVRYRLPLRVVKHFYWTSDSCPRPGVVLLTFRDKEICADPRVPWVKMILNKLSQ
In turn, B1 displayed a Kd of 5.22 nM.

B2: human CXCL9 (ligand)
chain: TPVVRKGRCSCISTNQGTIHLQSLKDLKQFAPSPSCEKIEIIATLKNGVQTCLNPDSADVKELIKKWEKQVSQKKKQKNGKKHQKKKVLKVRKSQRSRQKKTT
notes: also called hCXCL9; source: commercially available (Protocol S2)
In turn, B2 yielded a Kd of 12.3 nM.

B3: human CXCL13 (ligand)
chain: VLEVYYTSLRCRCVQESSVFIPRRFIDRIQILPRGNGCPRKEIIVWKKNKSIVCVDPQAEWIQRMMEVLRKRSSSTLPVPVFKRKIP
notes: also called hCXCL13; source: commercially available (Protocol S2)
The molecule B3 gave a Kd of 4.3 nM.

B4: human CXCL14 (ligand)
chain: SKCKCSRKGPKIRYSDVKKLEMKPKYPHCEEKMVIITTKSVSRYRGQEHCLHPKLQSTKRFIKWYNAWNEKRRVYEE
notes: also called hCXCL14; source: commercially available (Protocol S2)
The molecule B4 had a Kd of 4.3 nM.

B5: human CCL28 (ligand)
chain: SEAILPIASSCCTEVSHHISRRLLERVNMCRIQRADGDCDLAAVILHVKRRRICVSPHNHTVKQWMKVQAAKKNGKGNVCHRKKHHGKRNSNRAHQGKHETYGHKTPY
notes: also called hCCL28; source: commercially available (Protocol S2)
In the case of B5, the Kd is 3.2 nM.

B6: human CXCL11 (ligand)
chain: FPMFKRGRCLCIGPGVKAVKVADIEKASIMYPSNNCDKIEVIITLKENKGQRCLNPKSKQARLIIKKVERKNF
notes: also called hCXCL11; source: commercially available (Protocol S2)
Take B6: the Kd stood at 6 nM.

B7: human CCL18 (ligand)
chain: AQVGTNKELCCLVYTSWQIPQKFIVDYSETSPQCPKPGVILLTKRGRQICADPNKKWVQKYISDLKLNA
notes: also called hCCL18; source: commercially available (Protocol S2)
Take B7: the Kd is 28 nM.
